Experimental findings from publication PMC10284912, “Molecular choreography of primer synthesis by the eukaryotic Pol α-primase” (Nature Communications, 2023) are described below.

To fix the notation:
T1: S. cerevisiae DNA polymerase catalytic subunit Pol1 (S. cerevisiae, UniProt P13382 1-1468)
T1 construct: DNA polymerase alpha catalytic subunit Pol1, S. cerevisiae, aa 1-1468 (Pol1-NTD aa 1-348, Pol1-core aa 349-1259, Pol1-CTD aa 1260-1468); intact complex without truncations; also called DNA polymerase 1; p180
T1 sequence (looked up): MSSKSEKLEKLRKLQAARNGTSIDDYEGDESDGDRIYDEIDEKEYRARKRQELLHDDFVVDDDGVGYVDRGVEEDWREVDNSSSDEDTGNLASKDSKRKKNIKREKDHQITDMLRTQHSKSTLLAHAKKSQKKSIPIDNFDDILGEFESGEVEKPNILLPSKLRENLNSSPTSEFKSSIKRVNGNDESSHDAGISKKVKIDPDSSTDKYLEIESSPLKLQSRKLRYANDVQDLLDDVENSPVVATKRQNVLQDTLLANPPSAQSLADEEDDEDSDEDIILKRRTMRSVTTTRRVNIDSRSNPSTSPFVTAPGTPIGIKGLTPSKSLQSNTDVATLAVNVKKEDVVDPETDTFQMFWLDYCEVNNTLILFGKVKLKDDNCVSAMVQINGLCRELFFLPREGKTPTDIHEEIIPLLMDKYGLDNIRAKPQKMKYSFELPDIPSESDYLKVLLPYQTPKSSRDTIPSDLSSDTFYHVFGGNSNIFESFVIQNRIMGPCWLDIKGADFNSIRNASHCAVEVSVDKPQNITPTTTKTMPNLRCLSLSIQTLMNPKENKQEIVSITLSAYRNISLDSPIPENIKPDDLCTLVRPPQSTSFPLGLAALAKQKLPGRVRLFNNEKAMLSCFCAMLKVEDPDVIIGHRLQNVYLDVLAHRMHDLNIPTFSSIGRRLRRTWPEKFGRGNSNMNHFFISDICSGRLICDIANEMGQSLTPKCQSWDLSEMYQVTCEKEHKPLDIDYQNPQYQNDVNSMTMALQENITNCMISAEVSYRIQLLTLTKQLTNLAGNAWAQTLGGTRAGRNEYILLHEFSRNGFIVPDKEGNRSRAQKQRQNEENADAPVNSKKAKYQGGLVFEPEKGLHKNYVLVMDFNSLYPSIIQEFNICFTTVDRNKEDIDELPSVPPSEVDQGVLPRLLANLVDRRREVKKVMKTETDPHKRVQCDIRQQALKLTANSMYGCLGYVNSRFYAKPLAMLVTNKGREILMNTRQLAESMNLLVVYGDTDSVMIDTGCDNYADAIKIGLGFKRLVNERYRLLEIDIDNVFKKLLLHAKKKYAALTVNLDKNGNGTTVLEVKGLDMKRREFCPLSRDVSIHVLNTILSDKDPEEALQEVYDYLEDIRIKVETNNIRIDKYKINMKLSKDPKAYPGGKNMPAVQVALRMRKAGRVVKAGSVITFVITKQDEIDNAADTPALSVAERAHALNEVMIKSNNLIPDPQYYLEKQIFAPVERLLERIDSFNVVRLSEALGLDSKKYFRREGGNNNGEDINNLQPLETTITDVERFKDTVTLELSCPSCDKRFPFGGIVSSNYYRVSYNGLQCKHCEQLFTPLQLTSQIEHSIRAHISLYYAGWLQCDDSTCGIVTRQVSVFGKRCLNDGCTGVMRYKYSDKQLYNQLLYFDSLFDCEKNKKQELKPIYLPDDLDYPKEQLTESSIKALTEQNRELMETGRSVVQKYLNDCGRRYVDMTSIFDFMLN

B1: S. cerevisiae polymerase accessory subunit Pol12 (natural protein, UniProt P38121 1-705, looked up)
chain: MSGSIDVITHFGPDADKPEIITALENLTKLHALSVEDLYIKWEQFSNQRRQTHTDLTSKNIDEFKQFLQLQMEKRANQISSSSKVNTSTKKPVIKKSLNSSPLFGLSIPKTPTLKKRKLHGPFSLSDSKQTYNVGSEAETNEKGNSSLKLEFTPGMAEDAVGDSAPLSHAKSSDAKTPGSSTFQTPTTNTPTTSRQNVPAGEILDSLNPENIEISSGNPNVGLLSTEEPSYNQVKVEPFYDAKKYKFRTMRQNLQEASDVLDDQIESFTKIIQNHYKLSPNDFADPTIQSQSEIYAVGRIVPDSPTYDKFLNPESLSLETSRMGGVGRRVRLDLSQVNELSFFLGQIVAFKGKNANGDYFTVNSILPLPYPNSPVSTSQELQEFQANLEGSSLKVIVTCGPYFANDNFSLELLQEFIDSINNEVKPHVLIMFGPFIDITHPLIASGKLPNFPQFKTQPKTLDELFLKLFTPILKTISPHIQTVLIPSTKDAISNHAAYPQASLIRKALQLPKRNFKCMANPSSFQINEIYFGCSNVDTFKDLKEVIKGGTTSSRYRLDRVSEHILQQRRYYPIFPGSIRTRIKPKDVSTKKETNDMESKEEKVYEHISGADLDVSYLGLTEFVGGFSPDIMIIPSELQHFARVVQNVVVINPGRFIRATGNRGSYAQITVQCPDLEDGKLTLVEGEEPVYLHNVWKRARVDLIAS
notes: intact complex without truncations; also called p70; B-subunit
B2: S. cerevisiae regulatory subunit primase 2 (Pri2) (natural protein, UniProt P20457 1-528, looked up)
chain: MFRQSKRRIASRKNFSSYDDIVKSELDVGNTNAANQIILSSSSSEEEKKLYARLYESKLSFYDLPPQGEITLEQFEIWAIDRLKILLEIESCLSRNKSIKEIETIIKPQFQKLLPFNTESLEDRKKDYYSHFILRLCFCRSKELREKFVRAETFLFKIRFNMLTSTDQTKFVQSLDLPLLQFISNEEKAELSHQLYQTVSASLQFQLNLNEEHQRKQYFQQEKFIKLPFENVIELVGNRLVFLKDGYAYLPQFQQLNLLSNEFASKLNQELIKTYQYLPRLNEDDRLLPILNHLSSGYTIADFNQQKANQFSENVDDEINAQSVWSEEISSNYPLCIKNLMEGLKKNHHLRYYGRQQLSLFLKGIGLSADEALKFWSEAFTRNGNMTMEKFNKEYRYSFRHNYGLEGNRINYKPWDCHTILSKPRPGRGDYHGCPFRDWSHERLSAELRSMKLTQAQIISVLDSCQKGEYTIACTKVFEMTHNSASADLEIGEQTHIAHPNLYFERSRQLQKKQQKLEKEKLFNNGNH
notes: DNA primase large (regulatory) subunit Pri2, S. cerevisiae (Pri2-NTD, 20-residue linker, Pri2-CTD with a 4Fe-4S cluster); intact complex without truncations; also called p58; PriL
B3: S. cerevisiae catalytic primase 1 (Pri1) (natural protein, UniProt P10363 1-409, looked up)
chain: MTNSVKTNGPSSSDMEYYYKSLYPFKHIFNWLNHSPKPSRDMINREFAMAFRSGAYKRYNSFNSVQDFKAQIEKANPDRFEIGAIYNKPPRERDTLLKSELKALEKELVFDIDMDDYDAFRTCCSGAQVCSKCWKFISLAMKITNTALREDFGYKDFIWVFSGRRGAHCWVSDKRARALTDVQRRNVLDYVNVIRDRNTDKRLALKRPYHPHLARSLEQLKPFFVSIMLEEQNPWEDDQHAIQTLLPALYDKQLIDSLKKYWLDNPRRSSKEKWNDIDQIATSLFKGPKQDSHIIKLRECKEDLVLMTLYPKLDVEVTKQTIHLLKAPFCIHPATGNVCVPIDESFAPEKAPKLIDLQTEMEKNNDVSLTALQPFINQFQAYVSSLLKNELGSVKREREDDDEPASLDF
notes: DNA primase small (catalytic) subunit Pri1, S. cerevisiae; intact complex without truncations; also called p49; PriS

In experiment [1] the target is T1, S. cerevisiae DNA polymerase catalytic …. Put plainly: cryo-EM structure; purified yeast Pol α-primase alone (apo state, conformers I and II, 3.7 and 3.8 Å); ~1 mg/ml; 50 mM HEPES pH 7.5, 50 mM KGlu, 200 mM KAcetate, 1 mM DTT, 4 mM MgCl2. The settings on record: both partners purified.
Experiment [2] has as its target B2. The experiment is described as above. The note with it: both partners purified.

Regarding B1, the binding result in experiment [1] is given as “binds”.

For B2, in experiment [1], the binding result is “binds”.

For the molecule B3, the binding result in experiment [1] and in experiment [2] was “binds” throughout.
